“Also recorded” adds a separate entry of the source.
B1: rhBIGH3: recombinant human BIGH3 (TGFBI, keratoepithelin), a 68 kDa extracellular matrix protein (protein, UniProt Q15582 24-683, looked up)
Transforming growth …: GPAKSPYQLVLQHSRLRGRQHGPNVCAVQKVIGTNRKYFTNCKQWYQRKICGKSTVISYECCPGYEKVPGEKGCPAALPLSNLYETLGVVGSTTTQLYTDRTEKLRPEMEGPGSFTIFAPSNEAWASLPAEVLDSLVSNVNIELLNALRYHMVGRRVLTDELKHGMTLTSMYQNSNIQIHHYPNGIVTVNCARLLKADHHATNGVVHLIDKVISTITNNIQQIIEIEDTFETLRAAVAASGLNTMLEGNGQYTLLAPTNEAFEKIPSETLNRILGDPEALRDLLNNHILKSAMCAEAIVAGLSVETLEGTTLEVGCSGDMLTINGKAIISNKDILATNGVIHYIDELLIPDSAKTLFELAAESDVSTAIDLFRQAGLGNHLSGSERLTLLAPLNSVFKDGTPPIDAHTRNLLRNHIIKDQLASKYLYHGQTLETLGGKKLRVFVYRNSLCIENSCIAAHDKRGRYGTLFTMDRVLTPPMGTVMDVLKGDNRFSMLVAAIQSAGLTETLNREGVYTVFAPTNEAFRALPPRERSRLLGDAKELANILKYHIGDEILVSGGIGALVRLKSLQGDKLEVSLKNNVVSVNKEPVAEPDIMATNGVVHVITNVLQPPANRPQERGDELADSALEIFKQASAFSRASQRSVRLAPVYQKLLERMKH

Experiments:
COL1A2 promoter = assay: Collagen promoter-CAT reporter construct in transfected fibroblasts; type: cell-based, human
Procedure: Production of collagen was measured in cell cultures utilizing the metabolic labeling of collagen with ^14C-proline as described by Luzina. I. G. Luzina et al. (2006) Am J Respir Cell Mol Biol. 35:298-305; I. G. Luzina et al. (2006) Arthritis Rheum. 54: 2643-2655. Briefly, fibroblast monolayers were pulsed with L-[U-^14C]-proline (Amersham Biosciences, Piscataway, N.J.) at 1 μCi/ml for the final 12 hours of incubation. Purified bacterial collagenase type III was purchased from Sigma Aldrich (St. Louis, Mo.). Fibroblasts were then ruptured by repeated freeze-thawing, and part of each sample digested with collagenase type III. The samples were pelleted with 20% TCA containing 0.1% L-proline, and then the pellets were resuspended and washed twice with 5% TCA and 95% ice-cold ethanol. The samples were assayed in a liquid scintillation counter in order to determine the amount of collagenase-digestible and non-digestible ^14C-labeled protein. Alternatively, collagen protein levels in cell culture supernatants were measured in Western blotting assays as described above. The activity of the COL1A2 promoter was measured in primary fibroblasts transfected with collagen promoter-chloramphenicol acetyltransferase (CAT) reporter constructs as described by Luzina. I. G. Luzina et al. (2006) Am J Respir Cell Mol Biol. 35:298-305. […]

[1] = system: primary pulmonary fibroblasts; conditions: as reported by Luzina et al. 2006; cited from earlier work
[2] = system: primary pulmonary fibroblasts; assay: Collagen production in primary fibroblast cultures (14C-proline incorporation, Western blotting); type: cell-based, human; conditions: primary fibroblasts stimulated with rhBIGH3, various doses and times, 14C-proline incorporation and Western blotting
Procedure: (§1) Preparation of cell lysates, immunoprecipitation of BIGH3 protein, normalization of protein concentration in the samples with BioRad assays, electrophoretic separation and Western blotting were performed as previously described by Atamas. S. P. Atamas et al. (2003) Am J Respir Cell Mol Biol. 29:743-749. Goat antibodies for BIGH3 were purchased from R&D Systems (Minneapolis, Minn.). Goat antibodies for MMP14 were purchased from Santa-Cruz Biotechnology (Santa Cruz, Calif.). Western blotting assays for collagen were performed using rabbit affinity purified anti-collagen type I antibody (Rockland, Gilbertsville, Pa.).
Production of collagen was measured in cell cultures utilizing the metabolic labeling of collagen with ^14C-proline as described by Luzina. I. G. Luzina et al. (2006) Am J Respir Cell Mol Biol. 35:298-305; I. G. Luzina et al. (2006) Arthritis Rheum. 54: 2643-2655. […] Alternatively, collagen protein levels in cell culture supernatants were measured in Western blotting assays as described above. The activity of the COL1A2 promoter was measured in primary fibroblasts transfected with collagen promoter-chloramphenicol acetyltransferase (CAT) reporter constructs as described by Luzina. […]
To test this possibility, fibroblast cultures were incubated for various times with various doses of recombinant human BIGH3 (rhBIGH3), and the levels of collagen accumulation were measured. […]

PU.1 = assay: Transcription factor array, DNA binding by PU.1 in fibroblasts; type: cell-based, human; conditions: fibroblasts stimulated with 300 ng/ml rhBIGH3
Procedure: (§2) Nuclear extracts from BIGH3-activated and control fibroblast cultures were prepared using nuclear extraction kit from Active Motif (Carlsbad, Calif.) and adjusted for total protein content using Bio-Rad assays. DNA binding by 345 different transcription factors was evaluated using protein/DNA TranSignal™ system (Panomics, Redwood City, Calif.), following the manufacturer's recommendations.

MMP14 = assay: Western blotting for MMP14 protein in primary fibroblasts; type: cell-based, human; conditions: fibroblasts with 300 ng/ml rhBIGH3 for 24 h or 48 h
Procedure: as §1
Experiments were performed to determine whether BIGH3 upregulates collagen levels in fibroblast cultures by attenuating collagen turnover. To address such a possibility, experiments were performed in which primary fibroblasts were incubated for 6 h with or without 300 ng/ml BIGH3. The expression levels of 84 genes related to connective tissue biology were analyzed using reverse transcriptase—real time PCR approach (RT^2 Profiler™ SuperArray, Frederick, Md.). […] These experiments were repeated on three independent occasions with primary fibroblast cultures from different donors, with consistent results. MMP14 is a critical factor for collagen turnover by fibroblasts. H. Lee et al. (2006) Mol Biol Cell. 17:4812-4826. […]

Smad3/4, Sp1, AP1, Ets = assay: Transcription factor array, DNA binding of collagen promoter regulators in fibroblasts; type: cell-based, human; conditions: BIGH3-stimulated vs control fibroblasts, transcription factor arrays
Procedure: Further experiments were performed to determine whether the increase in collagen levels stimulated by BIGH3 was due to transcriptional upregulation of the collagen gene expression.
as §2

[3] = system: matrix metalloproteinase 2 (MMP2); assay: MMP2 levels in primary fibroblast cultures; type: cell-based, human; conditions: primary fibroblast cultures stimulated with recombinant BIGH3
p53 = assay: Transcription factor array, DNA binding by p53 in fibroblasts; type: cell-based, human; conditions: fibroblasts stimulated with 300 ng/ml rhBIGH3
Procedure: as §2

COL1A2 mRNA = assay: Real-time PCR of COL1A2 mRNA in fibroblasts; type: cell-based, human; conditions: BIGH3-treated vs control fibroblast cultures
Procedure: Total RNA purification, reverse transcription, and real-time PCR were performed using LightCycler (Roche, Indianapolis, Ind.), as previously described by Atamas. S. P. Atamas et al. (2003) Am J Respir Cell Mol Biol. 29:743-749. Quantification of internal control 18S ribosomal RNA was performed as reported previously by Luzina. I. G. Luzina et al. (2006) J Cell Physiol. 206:221-228. The PCR reaction mixture included the recommended components of the FastStart DNA Master Hybridization Probes Hot Start Reaction Mix (Roche, Indianapolis, Ind.). The fold difference in gene expression relative to 18S ribosomal RNA between treated and untreated cultures was calculated using the 2^−ΔΔCt method. I. G. Luzina et al. (2006) Arthritis Rheum. 54: 2643-2655. The primers and the hybridization probes for COL1A2 mRNA were designed and prepared by TIB Molbiol (Adelphia, N.J.). The primers for COL1A2 mRNA were: forward, 5′-GATGGTGAAGATGGTCCCACAGG-3′ (SEQ ID NO: 1) and reverse, 5′-GGTCGTCCGGGTTTTCCAGGGT-3′ (SEQ ID NO: 2). The hybridization probes were labeled with fluorescein at the 3′-terminus (3FL) of one probe and with LightCycler Red at the 5′-terminus (5LC) of the other probe. The probes were 3FL 5′-TTCCAAGGACCTGCTGGTGAGCCT-3′ (SEQ ID NO: 3) and 5LC 5′-TGAACCTGGTCAAACTGGTCCTGCAG-3′ (SEQ ID NO: 4). […]

Row | Molecule | response of collagen promoter-CAT reporter construct (COL1A2 promoter) | concentration of active TGF-β required for upregulation of collagen production [1] | collagen protein levels [2] | collagen protein levels ([2]; listed as recombinant BIGH3) | DNA binding by PU.1 (PU.1) | DNA binding by PU.1 (PU.1; listed as BIGH3) | MMP14 protein levels (MMP14) | DNA binding activity of Smad3/4, Sp1, AP1, Ets (Smad3/4, Sp1, AP1, Ets) | MMP2 levels [3] | DNA binding by p53 (p53) | DNA binding by p53 (p53; listed as BIGH3) | collagen (COL1A2) mRNA steady-state levels (COL1A2 mRNA)
1 | TGF-β [reference compound] | responsive | at least 500 pg/ml | – | – | – | – | – | – | – | – | – | –
2 | B1 | no differences were observed; also recorded: non-responsive | – | directly regulated collagen production; also recorded: Increases in collagen protein levels | upregulation of collagen protein | significant upregulation | increased | decreased significantly | no differences were detected; also recorded: no increase in the activity | downregulation | downregulation | decreased | no differences in steady-state levels; also recorded: did not stimulate an increase in collagen mRNA
